Data as given in patent publication US20230181748A1 (published 2023).
Like-named read-outs stand apart in the source and are kept apart here. Non-standard residues stand in square brackets, D forms with d. No end group written: not given here. pomalidomide = small molecule targeting Cereblon, fused after the C-terminal end; Hyp = O=C(O)[C@@H]1C[C@@H](O)CN1

Assays:
Assay in all cases: MST
[1] = target: preformed, sonicated Aβ aggregates (UniProt P05067 672-713)
[2] = target: T1, atto-633-labeled preformed tau aggregates (UniProt P10636 1-441, atto-633 label, site not stated)
[3] = target: atto-633-labeled tau monomers (UniProt P10636 1-441, atto-633 label, site not stated)
[4] = target: T1, atto-633-labeled preformed tau …; remark: listed apart in the source
[5] = target: T1, atto-633-labeled preformed tau …; remark: listed apart in the source

preformed, sonicated Aβ aggregates, sequence (P05067 672-713): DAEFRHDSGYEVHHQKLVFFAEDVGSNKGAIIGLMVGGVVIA
T1 sequence (P10636 other isoform, or with tags, fused parts or gaps): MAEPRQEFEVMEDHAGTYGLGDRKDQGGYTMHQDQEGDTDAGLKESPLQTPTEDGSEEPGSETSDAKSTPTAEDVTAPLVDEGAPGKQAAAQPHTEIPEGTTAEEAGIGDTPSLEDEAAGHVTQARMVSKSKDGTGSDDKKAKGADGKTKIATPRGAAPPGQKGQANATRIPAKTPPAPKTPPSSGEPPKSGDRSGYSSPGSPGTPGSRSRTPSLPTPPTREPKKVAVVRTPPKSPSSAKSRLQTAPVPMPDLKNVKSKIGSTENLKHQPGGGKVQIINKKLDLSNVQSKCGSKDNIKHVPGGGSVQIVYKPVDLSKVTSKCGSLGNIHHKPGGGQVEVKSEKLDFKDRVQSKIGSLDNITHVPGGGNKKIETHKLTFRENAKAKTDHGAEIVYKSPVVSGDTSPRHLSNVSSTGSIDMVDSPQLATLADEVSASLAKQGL
atto-633-labeled tau monomers, sequence (P10636 other isoform, or with tags, fused parts or gaps): as above

MVWGVVGSKLWFFA [AbCap_3]
Kd [1]: 4.94 µM | Kd [2]: 4.65 µM

WQIVYKGSVWMINK-pomalidomide (also: pomalidomide link chemistry not described) [HET-pomalidomide]
Kd [3]: ~10.9 µM | Kd [4]: 4.8 µM

WQIVYKGSVWMINKGSGSNLLRLTGW [HET_JAV]
Kd [4]: 2.2 µM

GWVVIAGSKLKFFA [AbCap_19]
Kd [1]: 6.08 µM

WQIVYKGSVWMINKGSGSALA[Hyp]YIP [HET fused to the VHL-moiety]
Kd [5]: 3.3 µM

WQIVYKGSVWMINK [HET]
Kd [5]: ~3.3 µM

MVWGVVGSKWVFFA [AbCap_4]
Kd [1]: 1.55 µM
